One data set deals with T1, 285bZIP E295G/E299G (human, UniProt P16220-1 285-339, C300S;C310S;C337S;E295G;E299G).
T1 sequence: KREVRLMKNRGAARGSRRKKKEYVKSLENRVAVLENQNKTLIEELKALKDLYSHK
Nature of the data set: stopped-flow fluorescence (koff/kon); 10 mM Mg2+; 10 mM MES pH 6.5, 150 mM NaCl, 10 mM MgCl2, 0.05% Tween-20, 25 C; NMR: 10 mM Tris-d11, 150 mM NaCl, 10 mM MgCl2, 1 mM NaN3, 5% D2O (NOE at 25 C). To be noted: protein: recombinant; tags: extra N-terminal Gly; chain copies: 2; label: 5' Alexa Fluor 488; hairpin (self-annealing, 11 bp stem, CCCC loop).

Data set [1] has as its target T2, CREB 285bZIP wild type (pseudo-WT, Cys to Ser) (human, UniProt P16220-1 285-339, C300S;C310S;C337S).
T2 sequence: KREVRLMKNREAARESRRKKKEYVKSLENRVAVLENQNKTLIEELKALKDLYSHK
Nature of the data set: stopped-flow fluorescence (koff/kon); koff 2.531 s-1; kon 6.7 nM-1 s-1; 10 mM Mg2+; 10 mM MES pH 6.5, 150 mM NaCl, 10 mM MgCl2, 0.05% Tween-20, 25 C; NMR: 10 mM Tris-d11, 150 mM NaCl, 10 mM MgCl2, 1 mM NaN3, 5% D2O (NOE at 25 C). To be noted: protein: recombinant; tags: extra N-terminal Gly after TEV cleavage; His6-GB1 removed; chain copies: 2; label: 5' Alexa Fluor 488; hairpin (self-annealing, 11 bp stem, CCCC loop).

Our source for the Kd values is article PMC11514473, “The transition state for coupled folding and binding of a disordered DNA binding domain resembles the unbound state” (Nucleic Acids Research, 2024).

For orientation: Kd means the concentration at which binding is half-saturated. In the case of CCTGACGTCAGCCCCCTGACGTCAGG (structured_DNA) [AlexaFluor488-CREh], the Kd with 285bZIP E295G/E299G amounted to 170 ± 50 nM; in data set [1], 0.38 ± 0.03 nM.
